According to publication PMC8473724:

What was measured:
Test in all cases: anti-FLAG co-immunoprecipitation, SILAC LC-MS
Details in all cases: chain shown with the change; Ramos PTP1B KO cells; n = 3; read off a plot; scale: log10 SILAC ratio
[1] = target: E3 ubiquitin-protein ligase CBL, P22681
PLCγ1, P19174 = target: T1, PLCγ1, P19174
T1 chain: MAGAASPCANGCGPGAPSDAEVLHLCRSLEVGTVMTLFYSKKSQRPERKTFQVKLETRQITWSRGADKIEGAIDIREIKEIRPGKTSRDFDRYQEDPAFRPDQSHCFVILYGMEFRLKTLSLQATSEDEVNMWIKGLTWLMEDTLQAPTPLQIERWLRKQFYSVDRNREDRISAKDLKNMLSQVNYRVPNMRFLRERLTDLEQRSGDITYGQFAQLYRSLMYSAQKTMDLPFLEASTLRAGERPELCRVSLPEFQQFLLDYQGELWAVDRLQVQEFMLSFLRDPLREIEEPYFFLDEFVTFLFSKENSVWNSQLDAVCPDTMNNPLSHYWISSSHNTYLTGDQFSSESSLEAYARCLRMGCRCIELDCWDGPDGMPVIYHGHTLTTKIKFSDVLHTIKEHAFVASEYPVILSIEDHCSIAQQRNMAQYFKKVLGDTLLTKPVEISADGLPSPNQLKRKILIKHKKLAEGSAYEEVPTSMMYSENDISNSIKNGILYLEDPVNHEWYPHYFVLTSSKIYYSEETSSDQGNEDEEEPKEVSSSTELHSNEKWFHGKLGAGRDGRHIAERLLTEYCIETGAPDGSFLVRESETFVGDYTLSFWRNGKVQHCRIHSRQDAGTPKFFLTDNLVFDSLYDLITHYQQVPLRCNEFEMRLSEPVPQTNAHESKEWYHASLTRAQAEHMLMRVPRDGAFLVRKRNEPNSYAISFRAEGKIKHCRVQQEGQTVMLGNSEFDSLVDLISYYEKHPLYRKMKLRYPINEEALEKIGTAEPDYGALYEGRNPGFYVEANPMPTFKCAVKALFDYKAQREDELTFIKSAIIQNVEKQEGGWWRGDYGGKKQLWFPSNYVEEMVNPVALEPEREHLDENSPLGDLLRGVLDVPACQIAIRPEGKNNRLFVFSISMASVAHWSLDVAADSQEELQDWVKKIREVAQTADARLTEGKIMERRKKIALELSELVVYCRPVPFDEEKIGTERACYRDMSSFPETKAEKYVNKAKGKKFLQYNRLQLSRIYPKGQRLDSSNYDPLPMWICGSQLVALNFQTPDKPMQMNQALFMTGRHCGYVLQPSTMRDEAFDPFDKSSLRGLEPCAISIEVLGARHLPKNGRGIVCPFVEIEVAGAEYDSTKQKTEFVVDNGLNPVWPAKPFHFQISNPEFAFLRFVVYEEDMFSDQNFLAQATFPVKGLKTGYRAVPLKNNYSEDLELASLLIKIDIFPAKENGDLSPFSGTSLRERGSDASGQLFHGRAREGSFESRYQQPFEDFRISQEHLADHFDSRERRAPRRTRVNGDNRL

[2] = target: T2, epidermal growth factor receptor substrate 15-like 1 (EPS15L1), Q9UBC2
T2 chain: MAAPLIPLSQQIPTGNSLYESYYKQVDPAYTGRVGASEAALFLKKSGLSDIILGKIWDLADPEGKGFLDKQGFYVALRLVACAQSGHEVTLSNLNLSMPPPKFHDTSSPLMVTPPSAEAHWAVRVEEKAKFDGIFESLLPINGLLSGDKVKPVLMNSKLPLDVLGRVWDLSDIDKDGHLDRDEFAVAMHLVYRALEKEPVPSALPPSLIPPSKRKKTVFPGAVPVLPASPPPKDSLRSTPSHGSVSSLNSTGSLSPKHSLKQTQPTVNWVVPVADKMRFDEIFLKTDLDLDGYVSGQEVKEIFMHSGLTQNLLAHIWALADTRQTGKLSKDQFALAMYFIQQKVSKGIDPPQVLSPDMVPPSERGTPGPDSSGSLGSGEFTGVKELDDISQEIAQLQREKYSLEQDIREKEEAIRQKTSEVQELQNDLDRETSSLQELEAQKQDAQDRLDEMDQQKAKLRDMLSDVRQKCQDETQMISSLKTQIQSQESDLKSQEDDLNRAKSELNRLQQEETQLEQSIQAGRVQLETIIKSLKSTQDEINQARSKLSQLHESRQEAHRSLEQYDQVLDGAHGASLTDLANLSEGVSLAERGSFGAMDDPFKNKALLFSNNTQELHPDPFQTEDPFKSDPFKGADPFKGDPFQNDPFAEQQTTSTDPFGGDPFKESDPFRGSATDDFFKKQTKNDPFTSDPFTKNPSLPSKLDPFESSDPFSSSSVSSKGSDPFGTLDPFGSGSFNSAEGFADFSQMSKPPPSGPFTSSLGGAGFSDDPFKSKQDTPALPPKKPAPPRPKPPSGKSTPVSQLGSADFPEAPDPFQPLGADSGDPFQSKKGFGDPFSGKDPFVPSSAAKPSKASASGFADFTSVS

[3] = target: amyloid-like protein 2 (APLP2), Q06481
amyloid-like protein 2 (APLP2), Q06481, sequence (Q06481 32-763): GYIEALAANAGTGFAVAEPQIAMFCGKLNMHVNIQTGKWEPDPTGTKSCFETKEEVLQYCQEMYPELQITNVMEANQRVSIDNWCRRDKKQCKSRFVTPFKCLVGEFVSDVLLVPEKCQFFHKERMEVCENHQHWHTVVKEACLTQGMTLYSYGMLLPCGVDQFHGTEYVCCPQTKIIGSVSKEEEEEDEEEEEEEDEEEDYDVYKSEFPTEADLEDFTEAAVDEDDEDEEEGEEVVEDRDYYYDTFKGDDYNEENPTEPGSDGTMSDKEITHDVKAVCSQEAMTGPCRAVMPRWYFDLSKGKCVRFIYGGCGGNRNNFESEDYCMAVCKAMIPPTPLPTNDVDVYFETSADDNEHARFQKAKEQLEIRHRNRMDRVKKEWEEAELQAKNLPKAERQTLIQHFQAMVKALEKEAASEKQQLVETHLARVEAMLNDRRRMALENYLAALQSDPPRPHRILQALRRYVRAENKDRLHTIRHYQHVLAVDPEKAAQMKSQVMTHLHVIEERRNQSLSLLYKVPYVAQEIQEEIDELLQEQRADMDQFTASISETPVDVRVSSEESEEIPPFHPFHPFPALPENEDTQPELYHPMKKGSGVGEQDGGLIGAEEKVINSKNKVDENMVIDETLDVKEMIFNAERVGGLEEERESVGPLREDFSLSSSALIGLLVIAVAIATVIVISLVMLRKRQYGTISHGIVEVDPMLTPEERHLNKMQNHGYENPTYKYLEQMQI

[4] = target: growth factor receptor-bound protein 2 (GRB2), P62993
[5] = target: T3, intersectin-2 (ITSN2), Q9NZM3
T3 chain: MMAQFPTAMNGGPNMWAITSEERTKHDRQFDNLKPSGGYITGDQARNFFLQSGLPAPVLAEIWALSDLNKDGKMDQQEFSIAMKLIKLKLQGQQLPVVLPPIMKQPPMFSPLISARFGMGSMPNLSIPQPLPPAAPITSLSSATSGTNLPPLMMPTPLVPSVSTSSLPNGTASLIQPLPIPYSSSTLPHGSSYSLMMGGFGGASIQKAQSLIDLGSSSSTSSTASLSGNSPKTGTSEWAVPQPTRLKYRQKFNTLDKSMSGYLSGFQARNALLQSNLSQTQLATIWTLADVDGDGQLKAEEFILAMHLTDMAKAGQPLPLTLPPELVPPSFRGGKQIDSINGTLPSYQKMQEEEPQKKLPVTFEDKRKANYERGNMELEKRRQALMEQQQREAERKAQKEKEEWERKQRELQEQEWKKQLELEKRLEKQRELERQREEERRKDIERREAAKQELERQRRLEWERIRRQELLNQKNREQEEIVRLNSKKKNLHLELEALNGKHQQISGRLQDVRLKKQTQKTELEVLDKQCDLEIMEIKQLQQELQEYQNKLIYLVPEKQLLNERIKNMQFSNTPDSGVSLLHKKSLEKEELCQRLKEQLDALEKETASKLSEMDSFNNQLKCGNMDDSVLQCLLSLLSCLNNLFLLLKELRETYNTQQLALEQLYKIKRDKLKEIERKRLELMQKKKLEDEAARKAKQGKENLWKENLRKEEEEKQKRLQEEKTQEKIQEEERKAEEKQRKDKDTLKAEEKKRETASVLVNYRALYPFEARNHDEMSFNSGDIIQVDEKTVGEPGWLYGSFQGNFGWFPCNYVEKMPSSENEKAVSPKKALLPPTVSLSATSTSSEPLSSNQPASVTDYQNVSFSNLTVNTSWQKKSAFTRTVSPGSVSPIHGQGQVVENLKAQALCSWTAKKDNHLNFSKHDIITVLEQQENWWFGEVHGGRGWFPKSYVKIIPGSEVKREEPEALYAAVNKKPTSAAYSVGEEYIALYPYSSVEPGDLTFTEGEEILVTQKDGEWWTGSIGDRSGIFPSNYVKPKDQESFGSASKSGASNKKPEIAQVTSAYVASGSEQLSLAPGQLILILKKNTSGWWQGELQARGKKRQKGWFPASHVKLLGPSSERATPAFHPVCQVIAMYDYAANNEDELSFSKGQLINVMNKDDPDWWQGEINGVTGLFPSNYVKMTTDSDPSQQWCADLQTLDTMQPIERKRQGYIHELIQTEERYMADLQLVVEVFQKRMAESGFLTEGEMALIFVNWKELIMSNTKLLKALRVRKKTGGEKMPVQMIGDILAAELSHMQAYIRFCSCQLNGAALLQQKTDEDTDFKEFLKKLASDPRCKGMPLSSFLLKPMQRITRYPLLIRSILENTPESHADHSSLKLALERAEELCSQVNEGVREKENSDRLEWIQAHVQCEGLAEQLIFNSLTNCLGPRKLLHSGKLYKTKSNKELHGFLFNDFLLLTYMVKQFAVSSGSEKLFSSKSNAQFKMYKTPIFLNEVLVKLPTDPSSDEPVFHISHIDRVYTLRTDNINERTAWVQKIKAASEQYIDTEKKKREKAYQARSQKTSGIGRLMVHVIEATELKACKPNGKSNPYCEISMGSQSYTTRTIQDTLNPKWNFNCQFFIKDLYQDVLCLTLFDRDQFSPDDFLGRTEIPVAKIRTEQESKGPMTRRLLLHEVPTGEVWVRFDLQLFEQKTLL

PLCγ2, P16885 = target: T4, PLCγ2, P16885
T4 chain: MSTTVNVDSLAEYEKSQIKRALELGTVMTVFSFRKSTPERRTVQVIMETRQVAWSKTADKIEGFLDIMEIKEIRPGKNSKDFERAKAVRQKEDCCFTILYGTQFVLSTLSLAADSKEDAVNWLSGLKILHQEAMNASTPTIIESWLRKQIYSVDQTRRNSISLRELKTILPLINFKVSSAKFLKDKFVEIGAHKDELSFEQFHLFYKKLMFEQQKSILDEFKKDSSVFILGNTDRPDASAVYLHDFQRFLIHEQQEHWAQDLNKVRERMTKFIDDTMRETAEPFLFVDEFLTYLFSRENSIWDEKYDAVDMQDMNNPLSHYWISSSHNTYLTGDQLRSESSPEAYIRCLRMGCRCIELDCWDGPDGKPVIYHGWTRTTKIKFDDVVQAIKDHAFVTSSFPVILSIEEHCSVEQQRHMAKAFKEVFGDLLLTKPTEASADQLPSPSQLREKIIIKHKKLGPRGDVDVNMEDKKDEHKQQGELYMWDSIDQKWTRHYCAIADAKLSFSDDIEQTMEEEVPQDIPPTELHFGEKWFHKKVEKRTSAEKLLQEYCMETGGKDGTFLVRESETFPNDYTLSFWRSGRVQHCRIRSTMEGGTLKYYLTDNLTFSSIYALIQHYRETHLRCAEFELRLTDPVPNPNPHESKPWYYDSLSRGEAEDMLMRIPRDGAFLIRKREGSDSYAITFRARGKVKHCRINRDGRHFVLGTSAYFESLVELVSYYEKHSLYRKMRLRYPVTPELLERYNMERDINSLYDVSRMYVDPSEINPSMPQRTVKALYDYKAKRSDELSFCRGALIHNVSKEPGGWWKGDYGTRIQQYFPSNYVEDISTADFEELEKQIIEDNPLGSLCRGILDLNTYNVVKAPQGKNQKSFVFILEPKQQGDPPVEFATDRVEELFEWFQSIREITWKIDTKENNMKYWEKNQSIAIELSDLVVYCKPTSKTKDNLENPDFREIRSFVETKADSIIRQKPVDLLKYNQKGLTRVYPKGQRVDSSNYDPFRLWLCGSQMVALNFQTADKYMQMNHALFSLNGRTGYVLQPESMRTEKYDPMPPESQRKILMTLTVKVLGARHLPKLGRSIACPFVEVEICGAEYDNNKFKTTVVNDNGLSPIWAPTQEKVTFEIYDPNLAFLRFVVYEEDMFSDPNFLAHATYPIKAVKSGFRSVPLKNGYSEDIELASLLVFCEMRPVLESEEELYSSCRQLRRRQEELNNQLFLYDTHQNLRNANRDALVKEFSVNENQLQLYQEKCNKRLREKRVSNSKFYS

B1: D181A; Y46F (protein)
chain: MEMEKEFEQIDKSGSWAAIYQDIRHEASDFPCRVAKLPKNKNRNRFRDVSPFDHSRIKLHQEDNDYINASLIKMEEAQRSYILTQGPLPNTCGHFWEMVWEQKSRGVVMLNRVMEKGSLKCAQYWPQKEEKEMIFEDTNLKLTLISEDIKSYYTVRQLELENLTTQETREILHFHYTTWPAFGVPESPASFLNFLFKVRESGSLSPEHGPVVVHCSAGIGRSGTFCLADTCLLLMDKRKDPSSVDIKKVLLEMRKFRMGLIQTADQLRFSYLAVIEGAKFIMGDSSVQDQWKELSHEDLEPPPEHIPPPPRPPKRILEPHNGKCREFFPNHQWVKEETQEDKDCPIKEEKGSPLNAAPYGIESMSQDTEVRSRVVGGSLRGAQAASPAKGEPSLPEKDEDHALSY
B1 was tested, and the enrichment [1] was 0.74, the enrichment (PLCγ1, P19174) was 0.87 and the enrichment [2] was 0.59. The enrichment [3] was 1.3, the enrichment [4] was 0.87 and the enrichment [5] was 0.62. The enrichment (PLCγ2, P16885) was 0.48.
